According to patent publication US20080280824A1, “COMPOSITIONS AND METHODS FOR TREATMENT OF CANCER OR NEURODEGENERATIVE DISEASE WITH PEPTIDE BASED MICROTUBULE STABILIZERS OR INHIBITORS” (University of Washington, priority 2007, published 2008):
Entries after “also recorded” stand apart in the source; their conditions may differ. Each block holds one molecule with its values, some of them ahead of it.

Legend:
Bovine brain tubulin [1] = molecular target: T1, Bovine brain tubulin (Bos taurus, UniProt P81947+Q6B856); assay: Microtubule assembly assay (DAPI fluorescence, Microtubule Stabilization/Destabilization Assay kit); type: biochemical; conditions: for effect on total microtubule assembly / amount of microtubules formed in 45 minutes / effect on rate of microtubule assembly: peptide or control molecule; for effect on microtubule assembly, vs absence of αB crystallin: wt or mutant αB crystallin protein, tubulin alone normalized to 1.0
T1 construct: Bovine brain tubulin was dissolved to 200 μM; purchased Cytoskeleton; Denver, Colo; host or cells: bovine brain
T1 sequence (P81947 whole entry): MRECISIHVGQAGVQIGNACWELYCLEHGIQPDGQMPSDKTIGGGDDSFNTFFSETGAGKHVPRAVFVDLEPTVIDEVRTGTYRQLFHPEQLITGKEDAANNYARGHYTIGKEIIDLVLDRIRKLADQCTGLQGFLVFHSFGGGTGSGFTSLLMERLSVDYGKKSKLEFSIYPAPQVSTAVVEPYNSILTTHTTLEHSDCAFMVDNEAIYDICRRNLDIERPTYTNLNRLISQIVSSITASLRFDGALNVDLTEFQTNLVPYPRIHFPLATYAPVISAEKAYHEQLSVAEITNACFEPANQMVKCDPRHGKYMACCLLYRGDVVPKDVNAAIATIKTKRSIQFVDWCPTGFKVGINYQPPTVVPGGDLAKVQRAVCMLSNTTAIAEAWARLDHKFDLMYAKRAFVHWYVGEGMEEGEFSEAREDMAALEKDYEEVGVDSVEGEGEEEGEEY
T1 sequence (Q6B856 whole entry): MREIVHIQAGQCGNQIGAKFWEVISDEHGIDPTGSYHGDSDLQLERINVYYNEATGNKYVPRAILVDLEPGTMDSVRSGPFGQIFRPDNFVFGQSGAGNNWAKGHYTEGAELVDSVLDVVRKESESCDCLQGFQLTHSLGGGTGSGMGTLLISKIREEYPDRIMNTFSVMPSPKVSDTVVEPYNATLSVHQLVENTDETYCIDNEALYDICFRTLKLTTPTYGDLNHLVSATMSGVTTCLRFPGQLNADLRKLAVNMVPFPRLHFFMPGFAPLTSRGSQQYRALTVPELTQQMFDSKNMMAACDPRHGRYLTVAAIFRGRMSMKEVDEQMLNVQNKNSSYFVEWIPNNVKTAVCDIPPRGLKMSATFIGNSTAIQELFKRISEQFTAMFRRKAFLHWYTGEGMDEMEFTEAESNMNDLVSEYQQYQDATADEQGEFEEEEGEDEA
Method: Microtubule assembly assays. The effect of selected αB crystallin peptides on the in vitro assembly of tubulin into microtubules was evaluated using the Microtubule Stabilization/Destabilization Assay kit (Cytoskeleton; Denver, Colo.) as described previously. Bonne et al., J Biol Chem 260:2819-25, 1985. Bovine brain tubulin was dissolved to 200 μM in 80 mM PIPES, 2 mM MgCl2, 0.5 mM EGTA, 10 μM DAPI, 1 mM GTP pH 6.9. 8.5 μl of the tubulin was mixed with 40 μl of 80 mM PIPES, 2 mM MgCl2, 0.5 mM EGTA, 7.4 μM DAPI, 16% Glycerol, 1.1 mM GTP pH 6.9 and 4.3 μl of 2 mM peptide in 2.5% DMSO, 2 mM Paclitaxel (polymerization promoter) in 100% DMSO, 15 mM CaCl2 (polymerization inhibitor) in water, or 2.5% DMSO only. Microtubule assembly was monitored by measuring the fluorescence of DAPI, a molecule whose emission fluorescence at λ=460 is enhanced 8-fold when it is incorporated into assembled microtubules. Bonne et al., J Biol Chem 260:2819-25, 1985. Fluorescence of samples were continuously read on a Perkin Elmer Victor^3 V fluorescence plate reader (Excitation λ=355 nm, Emission λ=460 nm) at 37° C. for 45 minutes.
The effect of wt and three mutant αB crystallins, Δ41-58, αAβ8, and Δ155-165 on the in vitro assembly of tubulin into microtubules was evaluated using the Microtubule Stabilization/Destabilization Assay kit described above (Cytoskeleton; Denver, Colo.). Bovine brain tubulin was dissolved to 200 μM in 80 mM PIPES, 2 mM MgCl2, 0.5 mM EGTA, 10 μM DAPI, 1 mM GTP pH 6.9. 8.5 μl of the tubulin was mixed with 40 μl of 80 mM PIPES, 2 mM MgCl2, 0.5 mM EGTA, 7.4 μM DAPI, 16% Glycerol, 1.1 mM GTP pH 6.9 and 4.3 μl of 80 μM protein in 20 mM Tris-Cl, pH8.0 or Tris-Cl buffer only. Fluorescence of samples were continuously read on a Perkin Elmer Victor^3 V fluorescence plate reader (Excitation λ=355 nm, Emission λ=460 nm) at 37° C. for 45 minutes.

pre-formed microtubules = assay: Microtubule disassembly assay (DAPI fluorescence); type: biochemical, Bovine; conditions: for effect on microtubule disassembly / inhibition of microtubule disassembly: peptide 170 μM, 34 μM pre-formed microtubules; for effect on microtubule disassembly / inhibition of microtubule disassembly / effect on microtubule disassembly (words), vs absence of αB crystallin: 23° C., 20 minutes; for effect on microtubule disassembly (words), vs absence of αB crystallin: wt or mutant αB crystallin (6.8 μM and 34 μM), 34 μM microtubules
Method: Microtubule disassembly assays. The effect of αB crystallin peptides and mutants on the in vitro disassembly of microtubules into soluble tubulin was evaluated using the Microtubule Stabilization/Destabilization Assay kit described above (Cytoskeleton; Denver, Colo.) as described previously^36. 34 μM pre-formed microtubules were incubated with the αB crystallin peptides (170 μM) or wt and mutant αB crystallins (6.8 μM and 34 μM) at 23° C. for 20 minutes. Incubation of microtubules at 23° C. results in the spontaneous disassembly of microtubules. The decrease in DAPI fluorescence at λ=460 nm was measured continuously for 20 minutes by exciting the samples at λ=355 nm using a Perkin Elmer Victor^3 V fluorescence plate reader.

Bovine brain tubulin [2] = assay: Tubulin thermal aggregation assay (absorbance at 340 nm); type: biochemical; conditions: for effect on thermal aggregation of tubulin: synthetic peptide, 34 μM tubulin; for effect on tubulin aggregation, vs absence of αB crystallin: wt or mutant αB crystallin protein
Method: Tubulin aggregation assays. The effect of αB crystallin peptides and mutants on the thermal aggregation of tubulin was evaluated using ultra-violet spectroscopy. Bovine brain tubulin was dissolved to 200 μM in 80 mM PIPES, 2 mM MgCl2, 0.5 mM EGTA, pH 6.9. 4.25 μl of 0.08, 0.4, or 2 mM test peptide or protein was diluted into 40 μl of 80 mM PIPES, 2 mM MgCl2, 0.5 mM EGTA, pH 6.9. 8.5 μl of the 200 μM tubulin was added to each sample. Samples were heated at 52° C. and the absorbance at λ=340 nm was measured continuously for 60 minutes using a Pharmacia Biotech Ultrospec 3000. GTP and glycerol were not present in the samples because they induce the assembly of microtubules.

[3] = 34 μM tubulin, 37° C., 45 minutes, vs tubulin alone
[4] = 34 μM tubulin, 37° C., vs tubulin alone

effect on total microtubule assembly / amount of microtubules formed in 45 minutes (Bovine brain tubulin [1]; 34 μM tubulin, 37° C., 45 minutes, vs tubulin alone, listed as 113FISREFHR120): inhibited microtubule assembly | effect on rate of microtubule assembly (Bovine brain tubulin [1]; [4]): slowed microtubule assembly | decrease of microtubule assembly (Bovine brain tubulin [1]; synthetic peptide (4.3 μl of 2 mM), 34 μM tubulin, 37° C., 45 minutes, vs tubulin alone): approximately 45%
Molecule: FISREFHR
effect on total microtubule assembly / amount of microtubules formed in 45 minutes (Bovine brain tubulin [1]; [3]): decreased the amount of microtubules formed; also recorded: inhibited | effect on microtubule disassembly (pre-formed microtubules): decreased | inhibition of microtubule disassembly (pre-formed microtubules): ~24% | effect on microtubule disassembly (pre-formed microtubules; listed as 113FISREFHR120): inhibited | effect on thermal aggregation of tubulin (Bovine brain tubulin [2]; 52° C., 60 minutes): decreased | effect on thermal aggregation of tubulin (Bovine brain tubulin [2]; 52° C., 60 minutes, listed as 113FISREFHR120): protected

effect on rate of microtubule assembly (Bovine brain tubulin [1]; [4]): accelerated microtubule assembly
Molecule: CC(=O)O[C@H]1C(=O)[C@@]2(C)[C@H]([C@H](OC(=O)c3ccccc3)[C@]3(O)C[C@H](OC(=O)[C@H](O)[C@@H](NC(=O)c4ccccc4)c4ccccc4)C(C)=C1C3(C)C)[C@]1(OC(C)=O)CO[C@@H]1C[C@@H]2O [Paclitaxel, reference compound]

effect on total microtubule assembly / amount of microtubules formed in 45 minutes (Bovine brain tubulin [1]; [3]): inhibited microtubule assembly
Molecule: [Ca+2].[Cl-].[Cl-] [CaCl2, reference compound]

delay of initiation of microtubule assembly relative to tubulin alone (Bovine brain tubulin [1]; 34 μM tubulin, 37° C.): approximately 5 minutes | effect on total microtubule assembly / amount of microtubules formed in 45 minutes (Bovine brain tubulin [1]; [3]): no effect; also recorded: no change | effect on rate of microtubule assembly (Bovine brain tubulin [1]; [4]): slowed the rate of microtubule assembly
Molecule: STSLSPFYLRPPSFLRAP
effect on total microtubule assembly / amount of microtubules formed in 45 minutes (Bovine brain tubulin [1]; 34 μM tubulin, 37° C., 45 minutes, vs tubulin alone, listed as 41STSLSPFYLRPPSFLRAP58): no effect; also recorded: little or no effect | effect on microtubule disassembly (pre-formed microtubules): no effect | effect on microtubule disassembly (pre-formed microtubules; listed as 41STSLSPFYLRPPSFLRAP58): little or no effect | effect on thermal aggregation of tubulin (Bovine brain tubulin [2]; 52° C., 60 minutes): small protective effect

Further lines, the molecule ahead of its results:

Molecule: LTITSSLSSDGV
effect on total microtubule assembly / amount of microtubules formed in 45 minutes (Bovine brain tubulin [1]; [3]): increased | effect on total microtubule assembly / amount of microtubules formed in 45 minutes (Bovine brain tubulin [1]; 34 μM tubulin, 37° C., 45 minutes, vs tubulin alone, listed as 131LTITSSLSSDGV142): promote microtubule assembly | effect on rate of microtubule assembly (Bovine brain tubulin [1]; [4]): increased | effect on microtubule disassembly (pre-formed microtubules): no effect | effect on microtubule disassembly (pre-formed microtubules; listed as 131LTITSSLSSDGV142): inhibit microtubule disassembly | effect on thermal aggregation of tubulin (Bovine brain tubulin [2]; 52° C., 60 minutes): decreased | effect on thermal aggregation of tubulin (Bovine brain tubulin [2]; 52° C., 60 minutes, listed as 131LTITSSLSSDGV142): protected

Molecule: DRFSVNLDVKHFS
effect on total microtubule assembly / amount of microtubules formed in 45 minutes (Bovine brain tubulin [1]; [3]): no effect; also recorded: without an effect | effect on total microtubule assembly / amount of microtubules formed in 45 minutes (Bovine brain tubulin [1]; 34 μM tubulin, 37° C., 45 minutes, vs tubulin alone, listed as 73DRFSVNLDVKHFS85): no effect; also recorded: little or no effect | effect on rate of microtubule assembly (Bovine brain tubulin [1]; [4]): accelerated microtubule assembly; also recorded: increased | effect on microtubule disassembly (pre-formed microtubules): no effect | effect on microtubule disassembly (pre-formed microtubules; listed as 73DRFSVNLDVKHFS85): little or no effect | effect on thermal aggregation of tubulin (Bovine brain tubulin [2]; 52° C., 60 minutes): no effect

Molecule: wt αB crystallin: wild-type full-length human αB crystallin, small heat shock protein and molecular chaperone, expressed and purified
effect on microtubule assembly (words) (Bovine brain tubulin [1]; high αB crystallin concentrations, tubulin:αB crystallin ratios <1:4): inhibited | effect on microtubule assembly (words) (Bovine brain tubulin [1]; molar ratios of tubulin to αB crystallin <1:2): inhibited microtubule assembly | effect on microtubule assembly (words) (Bovine brain tubulin [1]; molar ratios of tubulin to αB crystallin between 4:1 and 1:2): favored the assembly of additional microtubules; also recorded: promoted | microtubule assembly (Bovine brain tubulin [1]; ratio of tubulin to αB crystallin 1:10): no microtubules were formed; also recorded: undetectable | amount of microtubules formed less than tubulin alone (Bovine brain tubulin [1]; ratio of tubulin to αB crystallin <1:2, 34 μM tubulin): 30-63% | effect on microtubule assembly (words) (Bovine brain tubulin [1]; ratio of tubulin to αB crystallin >4:1): minimal | effect on microtubule assembly (words) (Bovine brain tubulin [1]; ratio of tubulin to αB crystallin >4:1, listed as αB crystallin): little or no effect | microtubule assembly, normalized (absence of αB crystallin = 1.0) (Bovine brain tubulin [1]; ratios <1.4, FIG. 5): < 1 | microtubule assembly, normalized (absence of αB crystallin = 1.0) (Bovine brain tubulin [1]; ratios between 4:1 and 1.2, FIG. 5): > 1.0 | microtubule assembly, normalized (absence of αB crystallin = 1.0) (Bovine brain tubulin [1]; tubulin to αB crystallin ratios >4:1, FIG. 5): 1.0 | effect on microtubule assembly, vs absence of αB crystallin (Bovine brain tubulin [1]): increased | increase of microtubule assembly (Bovine brain tubulin [1]; αB crystallin protein (4.3 μl of 80 μM), 34 μM tubulin, 37° C., 45 minutes): ~41% | effect on microtubule disassembly (words), vs absence of αB crystallin (pre-formed microtubules): unchanged | effect on microtubule disassembly (words), vs absence of αB crystallin (pre-formed microtubules; listed as Wt αB crystallin): no effect | decrease of thermal aggregation of tubulin (protection) (Bovine brain tubulin [2]; full-length αB crystallin protein, 52° C., 60 minutes): 65% | effect on tubulin aggregation, vs absence of αB crystallin (Bovine brain tubulin [2]; 52° C., 60 minutes): decreased

Molecule: ERTIPITRE [synthetic peptide of human αB crystallin C-terminal extension, residues 156-164]
effect on total microtubule assembly / amount of microtubules formed in 45 minutes (Bovine brain tubulin [1]; [3]): increased | effect on total microtubule assembly / amount of microtubules formed in 45 minutes (Bovine brain tubulin [1]; 34 μM tubulin, 37° C., 45 minutes, vs tubulin alone, listed as 155ERTIPITRE165): promote microtubule assembly | effect on total microtubule assembly / amount of microtubules formed in 45 minutes (Bovine brain tubulin [1]; 34 μM tubulin, 37° C., 45 minutes, vs tubulin alone, listed as 156ERTIPITRE164): promote microtubule assembly | effect on rate of microtubule assembly (Bovine brain tubulin [1]; [4]): increased | effect on microtubule disassembly (pre-formed microtubules): decreased | inhibition of microtubule disassembly (pre-formed microtubules): ~36% | effect on microtubule disassembly (pre-formed microtubules; listed as 156ERTIPITRE164): inhibit microtubule disassembly | effect on thermal aggregation of tubulin (Bovine brain tubulin [2]; 52° C., 60 minutes): decreased

B1: R120G: single point mutant of human αB crystallin, Arg-120 replaced with glycine (protein)
chain: MDIAIHHPWIRRPFFPFHSPSRLFDQFFGEHLLESDLFPTSTSLSPFYLRPPSFLRAPSWFDTGLSEMRLEKDRFSVNLDVKHFSPEELKVKVLGDVIEVHGKHEERQDEHGFISREFHGKYRIPADVDPLTITSSLSSDGVLTVNGPRKQVSGPERTIPITREEKPAVTAAPKK
microtubule assembly relative to wt αB crystallin (Bovine brain tubulin [1]; mutant αB crystallin, FIG. 4): lower | effect on microtubule assembly, vs absence of αB crystallin (Bovine brain tubulin [1]): unchanged | microtubule disassembly relative to wt αB crystallin (pre-formed microtubules; mutant αB crystallin, FIG. 4): similar | effect on microtubule disassembly (words), vs absence of αB crystallin (pre-formed microtubules): unchanged | tubulin aggregation relative to wt αB crystallin (Bovine brain tubulin [2]; mutant αB crystallin, FIG. 4): similar | effect on tubulin aggregation, vs absence of αB crystallin (Bovine brain tubulin [2]; 52° C., 60 minutes): decreased
